Measurements from publication PMC3734125, “Epitope Mapping and In Silico Characterization of Interactions between Der p 7 Allergen and MoAb WH9” (PLoS ONE, 2013).

Key:
Assay in all cases: far-Western, overlay or dot blot; SDS-PAGE immunoblot: purified recombinant Der p 7 proteins on PVDF membrane, incubated with hybridoma culture supernatant (1:10 in TTBS, 1% skim milk) 1 h at room temperature; band intensities quantified; percent reduction against the wild type
Conditions in all cases: one partner purified
[1] = biological target: T1, Der p 7 (wild type, recombinant) (Dermatophagoides pteronyssinus, UniProt P49273)
T1 construct: Mite allergen Der p 7, Dermatophagoides pteronyssinus, GenBank U37044; Expression and purification are described for the mutants (pQE80, E. coli JM109, Ni-NTA); also called wild-type Der p 7; source: purified recombinant protein

[2] = biological target: T2, Der p 7 L158A mutant (Dermatophagoides pteronyssinus, UniProt P49273, L158A)
T2 construct: Mite allergen Der p 7, Dermatophagoides pteronyssinus, GenBank U37044; source: E. coli JM109, purified (Ni-NTA)

[3] = biological target: T3, Der p 7 D159A mutant (Dermatophagoides pteronyssinus, UniProt P49273, D159A)
T3 construct: Mite allergen Der p 7, Dermatophagoides pteronyssinus, GenBank U37044; source: E. coli JM109, purified (Ni-NTA)

[4] = biological target: T4, Der p 7 S156A mutant (Dermatophagoides pteronyssinus, UniProt P49273, S156A)
T4 construct: Mite allergen Der p 7, Dermatophagoides pteronyssinus, GenBank U37044; source: E. coli JM109, purified (Ni-NTA)

[5] = biological target: T5, Der p 7 P160A mutant (Dermatophagoides pteronyssinus, UniProt P49273, P160A)
T5 construct: Mite allergen Der p 7, Dermatophagoides pteronyssinus, GenBank U37044; also called P106A (as printed once); source: E. coli JM109, purified (Ni-NTA)
T5 sequence (P49273 18-215 P177A): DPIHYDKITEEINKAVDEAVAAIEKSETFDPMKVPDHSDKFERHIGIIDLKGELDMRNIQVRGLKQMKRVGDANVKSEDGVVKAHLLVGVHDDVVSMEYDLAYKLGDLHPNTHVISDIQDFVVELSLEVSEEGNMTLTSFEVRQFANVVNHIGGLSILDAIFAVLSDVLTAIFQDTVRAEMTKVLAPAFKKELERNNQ

T3 sequence (P49273 18-215 D176A): as the sequence (P49273 18-215 P177A) above, with D159A, A160P counted along it
T2 sequence (P49273 18-215 L175A): as the sequence (P49273 18-215 P177A) above, with L158A, A160P counted along it
T4 sequence (P49273 18-215 S156A): as the sequence (P49273 18-215 P177A) above, with S139A, A160P counted along it
T1 sequence (P49273 18-215): as the sequence (P49273 18-215 P177A) above, with A160P counted along it

- binding result [1]: binds
- mean percentage of reduction in immunoreactivity against the wild type [2]: 87%
- mean percentage of reduction in immunoreactivity against the wild type [3]: 81%
- mean percentage of reduction in immunoreactivity against the wild type [4]: 18%
- mean percentage of reduction in immunoreactivity against the wild type [5]: 87%
B1: MoAb WH9 (antibody, V domains shown)
VH: QVQLEQSGAELAKVGASVKMSCKASGYTFTNYWMHWVKQRPGQGLEWIGYINPSIGYIDYNQKFKDKATLTVDKSSSTAYMQLSSLTSEDSAVYYCAGVEYGSSLGDYFDDWGQGTTL
VL: not shown
notes: variable domain of the heavy chain of WH9; the first nine amino acids derive from the PCR primer; variable domain of the light chain of WH9; the first eight amino acids derive from the PCR primer; also called mouse monoclonal antibody WH9; source: hybridoma WH9, culture supernatant
